Target: FITC-labeled porcine brain tubulin (porcine) (UniProt P02550)
Experiment: co-sedimentation

- fluorescence intensity (B/A) of the precipitate, labeled tubulin alone (6:0): 27.5
Substance: FITC-labeled porcine brain tubulin (from UniProt P02550 1-451) (complex)
